Data as given in US20040147432A1 (MERCK, published 2004).
Bridges are numbered along the chain shown (N, C = ends). Where no end group is shown, it is not given here.

B1: SEQ. ID. NO. 44 (peptide)
peptide: DFDALRCMLGRVYRPCWQV
modifications: disulfide 7-16
notes: also called Ala^4
B2: SEQ. ID. NO. 55 (peptide)
peptide: DFDMLRCMLGRVYRPCWAV
modifications: disulfide 7-16
notes: also called Ala^18
B3: SEQ. ID. NO. 52 (peptide)
peptide: DFDMLRCMLGRVYAPCWQV
modifications: disulfide 7-16
notes: also called Ala^14
B4: SEQ. ID. NO. 53 (peptide)
peptide: DFDMLRCMLGRVYRACWQV
modifications: disulfide 7-16
notes: also called Ala^15
B5: SEQ. ID. NO. 50 (peptide)
peptide: DFDMLRCMLGRAYRPCWQV
modifications: disulfide 7-16
notes: also called Ala^12
B6: SEQ. ID. NO. 54 (peptide)
peptide: DFDMLRCMLGRVYRPCAQV
modifications: disulfide 7-16
notes: also called Ala^17
B7: SEQ. ID. NO. 49 (peptide)
peptide: DFDMLRCMLGAVYRPCWQV
modifications: disulfide 7-16
B8: SEQ. ID. NO. 45 (peptide)
peptide: DFDMARCMLGRVYRPCWQV
modifications: disulfide 7-16
notes: also called Ala^5
B9: SEQ. ID. NO. 51 (peptide)
peptide: DFDMLRCMLGRVARPCWQV
modifications: disulfide 7-16
notes: also called Ala^13
B10: SEQ. ID. NO. 43 (peptide)
peptide: DFAMLRCMLGRVYRPCWQV
modifications: disulfide 7-16
notes: also called Ala^3

biological target: T1, human MCH-1R (human, UniProt Q99705 1-353); assay: SPA competition with [125I]-human MCH (Phe13, Tyr19) on receptor membranes
T1 construct: also called MCH-R1
T1 sequence (Q99705 whole entry, form in doubt): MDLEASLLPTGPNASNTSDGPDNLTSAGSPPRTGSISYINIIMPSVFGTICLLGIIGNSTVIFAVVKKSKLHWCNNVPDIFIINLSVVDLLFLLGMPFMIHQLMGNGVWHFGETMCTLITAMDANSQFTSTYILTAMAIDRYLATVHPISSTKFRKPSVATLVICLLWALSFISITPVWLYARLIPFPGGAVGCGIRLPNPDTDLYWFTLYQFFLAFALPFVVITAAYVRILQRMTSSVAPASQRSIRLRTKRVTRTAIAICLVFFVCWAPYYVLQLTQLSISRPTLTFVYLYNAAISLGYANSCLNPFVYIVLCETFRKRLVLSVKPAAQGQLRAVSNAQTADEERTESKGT
Procedure: (§1) For the SPA-based assay, WGA-PVT beads (NEN Life Sciences Products) were resuspended in Dulbecco's PBS with calcium and magnesium (500 mg beads in 4 ml PBS). […] The suspension was mixed gently for 20 minutes, 12.3 ml of assay buffer and protease inhibitors were added (final concentration given): 2 μg/ml leupeptin, 10 μM phosphoramidon, 40 μg/ml bacitracin, 5 μg/ml aprotinin, 0.1 mM Pefabloc.
(§2) Coated beads were kept on ice until use. […] Binding reactions were allowed to proceed at room temperature for 3 hours. Quantitation was performed by scintillation counting (TopCount device).

| Binder | IC50 [nM] |
| --- | --- |
| B1 | 0.5 |
| B2 | 0.7 |
| B3 | 1.4 |
| B4 | 1.9 |
| B5 | 0.9 |
| B6 | 0.1 |
| B7 | 169 |
| B8 | 0.3 |
| B9 | 253 |
| B10 | 0.5 |

biological target: T2, human melanin concentrating hormone type 2 receptor (MCH-2R) (human, UniProt Q969V1 1-340); assay: as above
T2 construct: also called MCH-R2
T2 sequence (Q969V1 whole entry, form in doubt): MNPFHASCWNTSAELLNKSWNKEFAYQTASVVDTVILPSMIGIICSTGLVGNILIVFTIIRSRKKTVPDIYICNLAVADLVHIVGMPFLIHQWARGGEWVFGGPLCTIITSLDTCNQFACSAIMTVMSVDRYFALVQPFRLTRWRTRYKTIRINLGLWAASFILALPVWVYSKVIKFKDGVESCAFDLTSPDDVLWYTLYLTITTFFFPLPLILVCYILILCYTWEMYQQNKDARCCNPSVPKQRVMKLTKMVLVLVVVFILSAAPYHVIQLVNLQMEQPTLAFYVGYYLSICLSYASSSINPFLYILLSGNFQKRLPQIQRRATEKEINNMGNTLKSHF
Procedure: as §1, §2

| Binder | IC50 [nM] |
| --- | --- |
| B1 | 2.4 |
| B2 | 9.5 |
| B3 | 62 |
| B4 | 19 |
| B5 | 25 |
| B6 | 5.1 |
| B7 | 290 |
| B8 | 2 |
| B9 | 670 |
| B10 | 1.2 |

biological target: T1, human MCH-1R; assay: cell-based or functional assay

| Binder | Activation % at 10 µM (aequorin functional assay) [%] | EC50 (aequorin functional assay) [nM] |
| --- | --- | --- |
| B1 | 97 | 12.7 |
| B2 | 99 | 36.1 |
| B3 | 97 | 28.3 |
| B4 | 99 | 34.7 |
| B5 | 95 | 38.3 |
| B6 | 100 | 6.8 |
| B7 | 24 | 5240 |
| B8 | 96 | 20.3 |
| B9 | 20 | 2300 |
| B10 | 97 | 30.2 |

biological target: T2, human melanin concentrating hormone …; assay: cell-based or functional assay

| Binder | Activation % at 10 µM (aequorin functional assay) [%] | EC50 (aequorin functional assay) [nM] |
| --- | --- | --- |
| B1 | 100 | 38.9 |
| B2 | 97 | 80.8 |
| B3 | 81 | 186 |
| B4 | 96 | 84.2 |
| B5 | 98 | 83.6 |
| B6 | 95 | 54.2 |
| B7 |  | > 1000 |
| B8 | 94 | 17.9 |
| B9 |  | > 1000 |
| B10 | 95 | 57.2 |
